From US6730293B1, “Compositions and methods for treating inflammatory diseases of the skin” (CellGate, Inc., priority 1999, dated 2004)
Square brackets hold non-standard residues; d marks the D form. Peptide text beside a SMILES is read from it. * marks the point of attachment. X1 = C[C@]12CCC(=O)C=C1CC[C@@H]1[C@@H]2[C@@H](O)C[C@@]2(C)[C@H]1CC[C@]2(O)C(=O)COC(=O)C*; Biotin = O=C1N[C@H]2[C@H](CS[C@H]2CCCCC(=O)*)N1; Ahx = NCCCCCC(=O)O

Columns and labels:
skin of nude mice = experiment: Penetration of hydrocortisone-biotinylated D-arginine conjugates into skin of nude mice; type: in vivo; conditions: back of nude mice, in PBS, 30, 60, 120 minutes
Method: Slides were analyzed by fluorescent microscopy.

[1] = tested on: full thickness human skin grafted onto the back of a SCID mouse; conditions: in vivo
[2] = tested on: CD3+ T cells in inflamed skin; conditions: mouse, in vivo
[3] = pH dependent stability / release of releasable Cyclosporin A conjugate; type: physicochemical; conditions: acidic pH vs physiological pH, absence of serum
From the text: See, e.g., R. E. Handschumacher, et al., Science 226, 544-7 (1984).
Another modification in the design of the releasable conjugate was the use of L-arginine (R), and not D-arginine (r) in the transporter.

[4] = tested on: abdominal skin of nude mice; experiment: Penetration of Cu-DTPA-r7 complex into skin of nude mice (blue color); type: in vivo; conditions: abdominal region of nude mice, 15, 30 and 45 minutes
Method: Metal diethylenetriaminepentaacetic acid (DTPA) complexes were formed by mixing equimolar amounts of metal salts with DTPA in water for 18 hours. At the end of this time, the solutions were centrifuged, frozen and lyophilized. The dried powder was characterized by mass spectrometry and used in solid phase peptide synthesis. The metal-DTPA complexes were attached to polymers of D- or L-arginine that were still attached to solid-phase resin used in peptide synthesis. The metal-DTPA complexes were attached using an aminocaproic acid spacer. The solid phase peptide synthesis techniques were described in Example 1, with the exception that cleavage of the peptide-DTPA -metal complex in trifluoroacetic acid released the metal. The metal is replaced after HPLC purification and lyophilization of the peptide-DTPA complex. Replacement of the metal involved incubation of equimolar amounts of the metal salt with the peptide-aminocaproic acid-DTPA complex and subsequent lyophilization.
Varying concentrations (1 M to 1 mM) of the Cu-DTPA -aca-r7 complex were applied to the abdominal region of nude mice for 15, 30 and 45 minutes. As controls, an equimolar amount of the Cu-DTPA complex was spotted onto the abdominal region.

C[C@H](NC(=O)[C@H](C)NC(=O)[C@@H](CCCNC(=N)N)NC(=O)[C@@H](CCCNC(=N)N)NC(=O)[C@@H](CCCNC(=N)N)NC(=O)[C@@H](CCCNC(=N)N)NC(=O)[C@@H](CCCNC(=N)N)NC(=O)CCCCCNC(=O)CCCC[C@@H]1SC[C@@H]2NC(=O)N[C@@H]21)C(=O)N[C@@H](CSCC(=O)OCC(=O)[C@@]1(O)CC[C@H]2[C@@H]3CCC4=CC(=O)CC[C@]4(C)[C@H]3[C@@H](O)C[C@@]21C)C(N)=O ({Biotin-Ahx}-[dR][dR][dR][dR][dR]AAC(X1)-NH2)
penetration into skin (fluorescent streptavidin staining) (skin of nude mice): very little uptake

C[C@H](NC(=O)[C@H](C)NC(=O)[C@@H](CCCNC(=N)N)NC(=O)[C@@H](CCCNC(=N)N)NC(=O)[C@@H](CCCNC(=N)N)NC(=O)[C@@H](CCCNC(=N)N)NC(=O)[C@@H](CCCNC(=N)N)NC(=O)[C@@H](CCCNC(=N)N)NC(=O)[C@@H](CCCNC(=N)N)NC(=O)CCCCCNC(=O)CCCC[C@@H]1SC[C@@H]2NC(=O)N[C@@H]21)C(=O)N[C@@H](CSCC(=O)OCC(=O)[C@@]1(O)CC[C@H]2[C@@H]3CCC4=CC(=O)CC[C@]4(C)[C@H]3[C@@H](O)C[C@@]21C)C(N)=O ({Biotin-Ahx}-[dR][dR][dR][dR][dR][dR][dR]AAC(X1)-NH2)
penetration into skin (fluorescent streptavidin staining) (skin of nude mice): effectively entered into and across the epidermis and into the dermis

C/C=C/C[C@@H](C)[C@@H](OC(=O)CSC[C@H](NC(=O)[C@@H](CCCNC(=N)N)NC(=O)[C@@H](CCCNC(=N)N)NC(=O)[C@@H](CCCNC(=N)N)NC(=O)[C@@H](CCCNC(=N)N)NC(=O)[C@@H](CCCNC(=N)N)NC(=O)[C@@H](CCCNC(=N)N)NC(=O)[C@@H](CCCNC(=N)N)NC(=O)CCCCCNC(=O)CCCC[C@@H]1SC[C@@H]2NC(=O)N[C@@H]21)C(N)=O)[C@H]1C(=O)N[C@@H](CC)C(=O)N(C)CC(=O)N(C)[C@@H](CC(C)C)C(=O)N[C@@H](C(C)C)C(=O)N(C)[C@@H](CC(C)C)C(=O)N[C@@H](C)C(=O)N[C@H](C)C(=O)N(C)[C@@H](CC(C)C)C(=O)N(C)[C@@H](CC(C)C)C(=O)N(C)[C@@H](C(C)C)C(=O)N1C [biotin r7 CsA, B-aca-r7-Cys-O-acyl-Cyclosporin A]
penetration into human skin [1]: penetrated human epidermis and dermis
presence in CD3+ T cells of inflamed skin [2]: found in all CD3[+] T cells

C/C=C/C[C@@H](C)[C@@H](OC(=O)CN(Cc1ccccc1)C(=O)CNCC(=O)N[C@@H](CCCNC(=N)N)C(=O)N[C@@H](CCCNC(=N)N)C(=O)N[C@@H](CCCNC(=N)N)C(=O)N[C@@H](CCCNC(=N)N)C(=O)N[C@@H](CCCNC(=N)N)C(=O)N[C@@H](CCCNC(=N)N)C(=O)N[C@@H](CCCNC(=N)N)C(N)=O)[C@H]1C(=O)N[C@@H](CC)C(=O)N(C)CC(=O)N(C)[C@@H](CC(C)C)C(=O)N[C@@H](C(C)C)C(=O)N(C)[C@@H](CC(C)C)C(=O)N[C@@H](C)C(=O)N[C@H](C)C(=O)N(C)[C@@H](CC(C)C)C(=O)N(C)[C@@H](CC(C)C)C(=O)N(C)[C@@H](C(C)C)C(=O)N1C [releasable R7 CsA conjugate]
pH stability [3]: stable at acidic pH, but labile at physiological pH

Copper-diethylenetriaminepentaacetic Acid Complex [Cu-DTPA]
blue color on skin after wiping off [4]: not where the Cu-DTPA alone was spotted
